Laboratory results reported in PMC8967028.

Experiments:
Assay in all cases: SPR; Biacore T200; […], single cycle kinetics, […]; 25°C; PBS, 0.05% Tween 20, 3.4 mM EDTA; 1:1 binding model; triplicate; […]
[1] = biological target: SARS-CoV-2 B.1.617.2 (Delta) spike (S) receptor binding domain (SARS-CoV-2)
[2] = biological target: SARS-CoV-2 B.1.351 (Beta) spike (S) receptor binding domain (SARS-CoV-2)
[3] = biological target: SARS-CoV-2 B.1.1.529 (Omicron) spike (S) receptor binding domain (SARS-CoV-2)

Substance | koff [1] [s⁻¹] | koff [2] [s⁻¹] | koff [3] [s⁻¹]
VHH-72-Fc S56M (Fc fusion) | 0.001 | 0.013 | 
VHH-72-Fc L97W,T99V (Fc fusion) | 0.00016 | 0.00056 | 0.061
VHH-72-Fc S56M,L97W (Fc fusion) | 0.00039 | 0.0025 | 0.7
VHH-72-Fc S56M,T99V (Fc fusion) | 0.00035 | 0.00068 | 0.0252
parental VHH-72-Fc (Fc fusion) | 0.0051 | 0.029 | 
VHH-72-Fc S56M,L97W,T99V (Fc fusion) | 0.00023 | 0.00039 | 0.007
VHH-72-Fc L97W (Fc fusion) | 0.00081 | 0.0079 | 
VHH-72-Fc T99V (Fc fusion) | 0.00062 | 0.0077 | 
